Experimental data reported in IntAct's records for PubMed 29892012.

B1: Late cornified envelope protein 1B (Homo sapiens), Q5T7P3 (parent)
chain: MSCQQNQQQCQPPPKCIPKCPPKCLTPRCPPKCPPKCPPVSSCCSVSSGGCCGSSSGGSCGSSSGGCCSSGGGGCCLSHHRRRRSHCHRPQSSGCCSQPSGGSSCCGGGSGQHSGGCC
partner: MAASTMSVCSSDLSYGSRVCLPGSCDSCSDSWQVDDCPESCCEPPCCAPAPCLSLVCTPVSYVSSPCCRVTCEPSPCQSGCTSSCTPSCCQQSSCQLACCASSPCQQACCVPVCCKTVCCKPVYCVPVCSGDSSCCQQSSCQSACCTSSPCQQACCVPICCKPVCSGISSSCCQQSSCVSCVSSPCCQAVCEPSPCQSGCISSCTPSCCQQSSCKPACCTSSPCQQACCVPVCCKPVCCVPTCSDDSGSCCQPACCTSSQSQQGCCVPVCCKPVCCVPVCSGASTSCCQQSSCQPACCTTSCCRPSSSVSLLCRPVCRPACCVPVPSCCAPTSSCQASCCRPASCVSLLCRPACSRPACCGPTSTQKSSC
B2: U3 small nucleolar RNA-associated protein 25 homolog (Homo sapiens), Q68CQ4 (parent)
chain: MGKRGSRSQSQLLNTLTKKQKKHLRDFGEEHPFYDRVSRKEAKPQICQLSESSDSSDSESDSESEPQQVSGYHRLLATLKNVSEEEEEDEEEEEEEDSIVDDAEMNDEDGGSDVSVEEEMAAESTESPENVALSADPEGKEDGEEPPGTSQTSPEEFTDAKHESLFSLETNFLEEESGDNSSLKASQDPFLQHVNKELKEKAIQAVATNPKTTHELKWPILGQLFFSSKFQKLETFKPPKDIDLKSLHLQKPLESTWTKTNSQFLSGPQKSSSPFTPLQKELFLIMNSYRDLFYPERTALKNGEEIRHVYCLHVINHILKANAQVLGNNSRRRSQKFGVGDDDDFRDQGLTRPKVLIVVPFREAALRVVQLFISLLEGDSKKKIIVSNKKRFQGEYGSDPEERPPNLKRPEDYEAVFVGNIDDHFRIGVAILQRSIRLYAPFYSSDILIASPLGLRTIIGGEGEKKRDFDFLSSIELLIIDQADIYLMQNWEHVLHLMNHMNLLPLDSHGVDFSRVRMWSLNNWSKYYRQTLLFGALQDAQINSVFNKYCVNMQGQVAVRNVPMTGSISHVLVQLPHVFQRMEAENLASVIDARFNFFVNKILPQYRDAVMSHTLIYIPSYFDFVRLRNYFKKEELNFTHICEYTQKSGVSRARHFFLQGEKQFLLFTERFHFYKRYTIKGIRNLIFYELPTYPHFYSEICNMLRATNRGEEATWTCTVLYSKYDAQRLAAVVGVERAAQMLQSNKNVHLFITGEK
partner: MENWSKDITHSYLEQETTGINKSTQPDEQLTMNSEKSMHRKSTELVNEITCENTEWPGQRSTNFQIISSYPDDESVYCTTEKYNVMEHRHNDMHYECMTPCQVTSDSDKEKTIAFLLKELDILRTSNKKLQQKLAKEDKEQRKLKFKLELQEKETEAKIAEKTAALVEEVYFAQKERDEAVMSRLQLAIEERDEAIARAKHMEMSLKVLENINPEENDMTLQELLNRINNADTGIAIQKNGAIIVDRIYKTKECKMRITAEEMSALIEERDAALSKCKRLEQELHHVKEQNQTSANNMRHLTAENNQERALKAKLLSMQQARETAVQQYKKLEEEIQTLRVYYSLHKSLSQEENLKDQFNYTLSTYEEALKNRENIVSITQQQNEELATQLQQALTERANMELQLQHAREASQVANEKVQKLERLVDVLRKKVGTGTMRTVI
B3: Late cornified envelope protein 1B (Homo sapiens), Q5T7P3 (parent)
chain: B1 chain
partner: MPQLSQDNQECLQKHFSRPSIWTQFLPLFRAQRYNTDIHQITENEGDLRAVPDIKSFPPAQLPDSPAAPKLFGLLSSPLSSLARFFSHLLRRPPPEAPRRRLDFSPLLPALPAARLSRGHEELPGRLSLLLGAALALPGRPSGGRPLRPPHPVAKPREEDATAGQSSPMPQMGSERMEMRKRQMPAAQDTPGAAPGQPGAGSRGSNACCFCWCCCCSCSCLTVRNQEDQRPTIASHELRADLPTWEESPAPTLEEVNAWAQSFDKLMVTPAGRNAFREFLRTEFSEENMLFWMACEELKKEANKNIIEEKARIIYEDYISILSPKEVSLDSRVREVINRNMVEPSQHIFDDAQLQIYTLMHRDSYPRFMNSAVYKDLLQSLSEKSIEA
B4: Zinc finger CCCH domain-containing protein 11A (Homo sapiens), O75152 (parent)
chain: MPNQGEDCYFFFYSTCTKGDSCPFRHCEAAIGNETVCTLWQEGRCFRQVCRFRHMEIDKKRSEIPCYWENQPTGCQKLNCAFHHNRGRYVDGLFLPPSKTVLPTVPESPEEEVKASQLSVQQNKLSVQSNPSPQLRSVMKVESSENVPSPTHPPVVINAADDDEDDDDQFSEEGDETKTPTLQPTPEVHNGLRVTSVRKPAVNIKQGECLNFGIKTLEEIKSKKMKEKSKKQGEGSSGVSSLLLHPEPVPGPEKENVRTVVRTVTLSTKQGEEPLVRLSLTERLGKRKFSAGGDSDPPLKRSLAQRLGKKVEAPETNIDKTPKKAQVSKSLKERLGMSADPDNEDATDKVNKVGEIHVKTLEEILLERASQKRGELQTKLKTEGPSKTDDSTSGARSSSTIRIKTFSEVLAEKKHRQQEAERQKSKKDTTCIKLKIDSEIKKTVVLPPIVASRGQSEEPAGKTKSMQEVHIKTLEEIKLEKALRVQQSSESSTSSPSQHEATPGARRLLRITKRTGMKEEKNLQEGNEVDSQSSIRTEAKEASGETTGVDITKIQVKRCETMREKHMQKQQEREKSVLTPLRGDVASCNTQVAEKPVLTAVPGITRHLTKRLPTKSSQKVEVETSGIGDSLLNVKCAAQTLEKRGKAKPKVNVKPSVVKVVSSPKLAPKRKAVEMHAAVIAAVKPLSSSSVLQEPPAKKAAVAVVPLVSEDKSVTVPEAENPRDSLVLPPTQSSSDSSPPEVSGPSSSQMSMKTRRLSSASTGKPPLSVEDDFEKLIWEISGGKLEAEIDLDPGKDEDDLLLELSEMIDS
B5: U3 small nucleolar RNA-associated protein 25 homolog (Homo sapiens), Q68CQ4 (parent)
chain: B2 chain
B6: RNA-binding protein 3 (Homo sapiens), P98179 (parent)
chain: MSSEEGKLFVGGLNFNTDEQALEDHFSSFGPISEVVVVKDRETQRSRGFGFITFTNPEHASVAMRAMNGESLDGRQIRVDHAGKSARGTRGGGFGAHGRGRSYSRGGGDQGYGSGRYYDSRPGGYGYGYGRSRDYNGRNQGGYDRYSGGNYRDNYDN
partner: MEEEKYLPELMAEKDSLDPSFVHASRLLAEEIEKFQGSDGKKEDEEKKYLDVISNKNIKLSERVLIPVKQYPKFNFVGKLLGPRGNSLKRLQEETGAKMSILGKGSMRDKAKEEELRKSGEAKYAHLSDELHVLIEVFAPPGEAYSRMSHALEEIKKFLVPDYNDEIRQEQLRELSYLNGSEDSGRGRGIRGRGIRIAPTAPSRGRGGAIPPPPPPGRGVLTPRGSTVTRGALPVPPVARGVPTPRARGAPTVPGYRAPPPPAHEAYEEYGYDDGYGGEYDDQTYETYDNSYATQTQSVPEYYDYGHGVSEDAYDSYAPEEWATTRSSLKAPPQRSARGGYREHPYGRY

Variants of: B1
Details: with kr107_human KRTAP10-7, P60409

Variant | effect of a mutation on the interaction
C16Y | disrupting interaction strength

Variants of: B2
Details: with mipo1_human MIPOL1, Q8TD10

Variant | effect of a mutation on the interaction
D399E | with no effect

Variants of: B3
Details: with rgs20_human RGS20, O76081

Variant | effect of a mutation on the interaction
C16Y | with no effect

Variants of: B4
Details: with mlh1_human MLH1, P40692
mlh1_human MLH1, P40692, sequence (P40692 whole entry): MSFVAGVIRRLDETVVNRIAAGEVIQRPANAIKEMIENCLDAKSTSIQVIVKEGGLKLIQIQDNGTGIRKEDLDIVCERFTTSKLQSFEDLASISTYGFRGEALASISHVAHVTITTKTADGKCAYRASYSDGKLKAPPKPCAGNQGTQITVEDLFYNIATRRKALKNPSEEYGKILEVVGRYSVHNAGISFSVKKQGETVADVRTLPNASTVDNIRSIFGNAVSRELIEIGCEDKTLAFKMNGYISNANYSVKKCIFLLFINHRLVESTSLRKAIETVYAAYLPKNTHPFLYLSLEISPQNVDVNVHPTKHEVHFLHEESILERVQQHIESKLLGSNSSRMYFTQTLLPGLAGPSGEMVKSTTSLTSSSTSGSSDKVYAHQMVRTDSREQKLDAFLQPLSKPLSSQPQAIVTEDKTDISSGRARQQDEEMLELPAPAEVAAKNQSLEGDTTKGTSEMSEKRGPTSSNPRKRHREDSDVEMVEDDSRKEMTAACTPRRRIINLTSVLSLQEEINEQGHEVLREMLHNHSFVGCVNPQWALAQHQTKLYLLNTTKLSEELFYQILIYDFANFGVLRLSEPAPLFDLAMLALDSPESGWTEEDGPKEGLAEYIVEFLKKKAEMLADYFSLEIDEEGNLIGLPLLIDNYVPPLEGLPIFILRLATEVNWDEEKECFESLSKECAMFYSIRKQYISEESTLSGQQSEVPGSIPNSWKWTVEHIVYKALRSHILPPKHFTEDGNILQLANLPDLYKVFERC

Variant | effect of a mutation on the interaction
E408D | with no effect

Variants of: B5
Details: with rufy1_human RUFY1, Q96T51
rufy1_human RUFY1, Q96T51, sequence (Q96T51 whole entry): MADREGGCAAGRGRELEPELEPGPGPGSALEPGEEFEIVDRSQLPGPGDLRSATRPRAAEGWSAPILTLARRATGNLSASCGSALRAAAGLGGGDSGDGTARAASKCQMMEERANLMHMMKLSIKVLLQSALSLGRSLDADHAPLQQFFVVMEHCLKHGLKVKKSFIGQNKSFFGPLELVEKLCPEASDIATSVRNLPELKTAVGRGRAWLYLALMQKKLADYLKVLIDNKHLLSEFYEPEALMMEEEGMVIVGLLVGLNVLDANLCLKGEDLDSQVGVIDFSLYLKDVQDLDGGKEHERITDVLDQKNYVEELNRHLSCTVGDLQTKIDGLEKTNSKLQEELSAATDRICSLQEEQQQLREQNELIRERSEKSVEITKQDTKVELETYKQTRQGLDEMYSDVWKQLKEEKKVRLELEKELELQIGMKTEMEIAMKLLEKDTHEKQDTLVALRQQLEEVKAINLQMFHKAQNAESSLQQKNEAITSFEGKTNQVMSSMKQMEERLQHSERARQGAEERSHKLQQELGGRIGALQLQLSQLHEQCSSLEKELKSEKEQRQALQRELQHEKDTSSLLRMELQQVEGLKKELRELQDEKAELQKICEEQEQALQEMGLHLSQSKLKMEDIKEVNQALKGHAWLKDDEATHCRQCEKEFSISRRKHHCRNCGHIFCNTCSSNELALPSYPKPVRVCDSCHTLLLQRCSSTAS

Variant | effect of a mutation on the interaction
D399E | with no effect

Variants of: B6
Details: with khdr2_human KHDRBS2, Q5VWX1

Variant | effect of a mutation on the interaction
R145H | with no effect
